Reference: the RNAGym collection of RNA variant scans (doi:10.7554/elife.90254)

B1: LINE1-full (parent)
chain: UACGUAGGUGGUUUUCCCCUGAUAGUGCUAAGGGGGCCUGGAAGUUUGGACUGGGCAGAGCUCAACACAGCGUGGCAAAGUGGCUGUGGCUAGACUGCCUCUCUGGAUUCCUCGUCACUCAGCAGGGCAUCUCUGAGAGAAAUGCC

Variants of: B1
Experiment: self-cleavage, relative activity (ratio to wild type); higher = more cleavage; in vitro, sequencing; the parent is a self-cleaving ribozyme

Variant	self-cleavage
U12G G114A	1.07
U12G U13C	0.95
U12G U20C	1.02
U12G U23A	0.85
U12G U26A	1.3
U12G U26C	0.57
U12G U29C	1.02
U12G U39C	1.61
U12G U45C	1.48
U12G U46C	1.29
U12G U47C	1.04
U12G U52A	1.22
U12G U52C	0.79
U12G U62A	0.16
U12G U62C	0.14
U12G U81C	0.86
U12G U85C	0.4
U12G U91A	0.97
U12G U96A	0.21
U12G U104C	1.48
U12G U108G	0.82
U12G U109C	1.57
U12G U112C	1.01
U12G U115A	0.75

Variant	self-cleavage
U12G U115C	1.47
U12G U115G	0
U12G U119A	1.32
U12G U119C	1.34
U12G U130A	1.65
U12G U132A	0.66
U12G U132C	1.02
U12G U143C	1.23
U13A	0.98
U13A A24G	0.53
U13A A30U	0.7
U13A A42G	1.26
U13A A50G	0.76
U13A A59U	0.44
U13A A64G	0.12
U13A A64U	0.25
U13A A67G	0.22
U13A A67U	0.07
U13A A69C	0.08
U13A A69G	0.25
U13A A69U	0.01
U13A A77G	0.46
U13A A78U	1.52
U13A A79U	0.96

Variant	self-cleavage
U13A A92G	0.12
U13A A107G	1.11
U13A A107U	1.74
U13A A121U	1.12
U13A A140G	0.52
U13A A142G	1.2
U13A C19A	1.84
U13A C37U	0.72
U13A C56A	0.05
U13A C63U	0.35
U13A C71G	0.2
U13A C98G	0.09
U13A C111U	0.89
U13A C118U	0.52
U13A C128U	1.61
U13A C131U	1.15
U13A C145U	1.26
U13A G40A	1.19
U13A G48A	1.01
U13A G82U	0.65
U13A G83A	0.58
U13A G125A	0.72
U13A G125U	1.03
U13A G126U	1.86

Variant	self-cleavage
U13A G137A	1.13
U13A U14A	1.14
U13A U14C	0.46
U13A U20A	1.15
U13A U23C	1.62
U13A U26A	0.78
U13A U26C	1.19
U13A U29A	0.42
U13A U46A	1.21
U13A U47A	1.01
U13A U47G	0.38
U13A U62A	0.06
U13A U62C	0.03
U13A U73A	1.04
U13A U73C	0.94
U13A U81A	1.81
U13A U81C	0.85
U13A U85C	0.13
U13A U91C	0.89
U13A U96C	0.1
U13A U108C	1.02
U13A U109C	1.17
U13A U115C	1.56
U13A U115G	1.29

Variant	self-cleavage
U13A U130C	1.22
U13A U132A	0.87
U13A U132C	0.98
U13A U132G	0.6
U13A U134C	0.85
U13A U143A	0.84
U13A U143G	1.01
U13C	1.15
U13C A22U	1.22
U13C A24U	1.11
U13C A30G	0.77
U13C A31U	1.1
U13C A43C	0.84
U13C A43G	0.99
U13C A43U	1.29
U13C A50U	0.83
U13C A57G	0.76
U13C A57U	0.12
U13C A59G	0.13
U13C A59U	0.86
U13C A64C	0.45
U13C A64U	0.44
U13C A65G	0.12
U13C A67G	0.71

Variant	self-cleavage
U13C A69U	0.1
U13C A77C	1.15
U13C A77G	1.85
U13C A77U	0.87
U13C A78G	0.99
U13C A78U	1.81
U13C A94G	0.33
U13C A107C	0.94
U13C A107G	1.39
U13C A117G	1.02
U13C A117U	1.07
U13C A121C	1.34
U13C A121G	1.52
U13C A121U	1.26
U13C A124G	1.04
U13C A129C	1.33
U13C A136G	1.25
U13C A136U	1.18
U13C A138C	1.13
U13C A138U	1.31
U13C A140G	1.23
U13C A142U	1.09
U13C C17U	1.19
U13C C18U	1.57

Variant	self-cleavage
U13C C51U	0.97
U13C C66U	0.14
U13C C71A	0.24
U13C C71U	0.58
U13C C84U	0.11
U13C C90U	0.04
U13C C98G	0.15
U13C C98U	0.35
U13C C99U	0.48
U13C C103A	1
U13C C103U	1.06
U13C C110U	1.43
U13C C116A	1.15
U13C C116U	0.7
U13C C120U	1.05
U13C C128A	0.79
U13C C128U	0.78
U13C C131A	1.28
U13C C145A	1.6
U13C G21A	0.94
U13C G21U	1
U13C G25U	1.52
U13C G33U	1.64
U13C G35A	1.13

Variant	self-cleavage
U13C G36A	1.2
U13C G40A	0.91
U13C G40U	1.87
U13C G41A	1.81
U13C G49A	0.88
U13C G53C	2.02
U13C G53U	1.11
U13C G54A	0.62
U13C G54U	0.6
U13C G55C	0.25
U13C G72A	1.22
U13C G75A	1.16
U13C G80A	1.48
U13C G89A	0.04
U13C G97A	0.08
U13C G105A	1.33
U13C G106A	1.51
U13C G122A	1.5
U13C G122U	1.02
U13C G126U	1.2
U13C G135A	0.75
U13C G139U	1.19
U13C G144A	1.91
U13C U15C	1.03

Variant	self-cleavage
U13C U20C	1.06
U13C U20G	0.69
U13C U23C	0.41
U13C U39C	1.08
U13C U45G	1.46
U13C U46A	1.13
U13C U46G	1.31
U13C U47C	1.56
U13C U52G	1.3
U13C U62A	0.12
U13C U62C	0.09
U13C U62G	0
U13C U73A	1.39
U13C U73C	1.17
U13C U73G	0.91
U13C U81C	1.05
U13C U85A	0.13
U13C U87G	0.21
U13C U91A	0.85
U13C U91C	0.99
U13C U96G	0.06
U13C U100A	0.7
U13C U100C	1.4
U13C U102A	1.73

Variant	self-cleavage
U13C U102C	1.4
U13C U112C	1.35
U13C U112G	1.13
U13C U115A	1.3
U13C U115C	1.53
U13C U119C	1.54
U13C U130A	1.6
U13C U130C	1.2
U13C U132A	1.3
U13C U132C	1.2
U13C U134A	1.03
U13C U134G	1.04
U13C U143A	1.17
U13G	0.93
U13G A67G	1.9
U13G A67U	0.13
U13G A69U	0.39
U13G A77U	1.31
U13G A79U	0.44
U13G A92G	0
U13G A94G	0.37
U13G A121G	1.1
U13G A129G	1.46
U13G C76U	1.47

Variant	self-cleavage
U13G C113U	1.11
U13G G58A	0.17
U13G G114A	0.64
U13G U39C	0.7
U13G U45C	0.78
U13G U47C	1.17
U13G U85A	0.06
U13G U100A	0.77
U13G U104A	1.39
U13G U115G	1.43
U13G U132G	2.18
U14A	1.01
U14A A24G	0.96
U14A A24U	0.77
U14A A30G	1.27
U14A A31G	0.89
U14A A31U	0.84
U14A A43G	0.43
U14A A50G	1.25
U14A A67U	0.1
U14A A77G	1.39
U14A A78G	0.34
U14A A129G	1.84
U14A A136C	1.78

Variant	self-cleavage
U14A A136G	0.97
U14A A138G	1.15
U14A A140G	0.91
U14A A140U	1.43
U14A A141G	1
U14A A142G	0.85
U14A C28U	0.66
U14A C99U	0.85
U14A C101A	1.42
U14A C103U	0.99
U14A G70A	0.19
U14A G72U	1.32
U14A G114A	0.83
U14A U23C	1.44
U14A U26A	0.79
U14A U29A	1.51
U14A U29C	1.28
U14A U39A	0.8
U14A U39C	0.95
U14A U45A	0.23
U14A U45C	1.09
U14A U45G	0.77
U14A U46A	0.86
U14A U46C	1.17

Variant	self-cleavage
U14A U47C	1.14
U14A U52C	0.8
U14A U62A	0.05
U14A U73A	1.39
U14A U81A	2.09
U14A U81C	1.1
U14A U81G	0.8
U14A U87C	0.12
U14A U96C	0.04
U14A U102A	0.99
U14A U104A	1.16
U14A U104C	1.69
U14A U109C	1.05
U14A U119A	1.02
U14A U130C	0.83
U14A U132C	1.35
U14A U134A	0.81
U14A U143C	1
U14C	1.15
U14C A22U	2.36
U14C A31G	1.24
U14C A31U	1.11
U14C A42G	1.15
U14C A50U	1.03

Variant	self-cleavage
U14C A57U	0.06
U14C A59U	0.88
U14C A64U	0.46
U14C A65U	0.19
U14C A67G	0.61
U14C A69G	0.6
U14C A77C	2.68
U14C A77G	1.73
U14C A78C	1.74
U14C A78G	1.22
U14C A79U	1.97
U14C A92G	0.14
U14C A92U	0.89
U14C A94C	0.09
U14C A94G	0.31
U14C A117G	1.22
U14C A121C	1.13
U14C A121G	1.3
U14C A121U	1.25
U14C A129U	1.35
U14C A142G	1.34
U14C C16A	0.84
